Test results from patent US20260226152A1 (GlaxoSmithKline, published 2026).
Values belong to the binder of their own block, whether it stands above or below them.

Legend:
Human IL-18 [1] = target: T1, Human IL-18 (human, UniProt Q14116 37-193); assay: SPR (Biacore), antibody captured on Protein A/G, cytokine as analyte, 25 C
T1 construct: Recombinant, made in-house; In the BLI assay the loaded cytokine was captured on anti-Penta His sensors, so a His tag is implied but not described; also called recombinant human IL-18; interleukin 18
T1 sequence: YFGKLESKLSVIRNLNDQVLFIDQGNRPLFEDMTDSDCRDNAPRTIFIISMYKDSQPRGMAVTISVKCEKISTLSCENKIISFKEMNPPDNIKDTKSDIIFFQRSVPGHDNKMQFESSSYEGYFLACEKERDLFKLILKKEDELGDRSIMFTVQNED
Protocol: (§1) A heterodimeric bsAb, alongside anti-IL-18 and anti-IL-23 common light chain control bispecific antibodies, were assessed for binding to human and cyno IL-18 and IL-23, using the Biacore 8K and T200 (Cytiva) surface plasmon resonance (SPR) instruments. All reagents were generated recombinantly in-house with the exception of Rhesus monkey IL-18 which was purchased from R&D systems (Cat #2548-RM-025/CF). Rhesus and cynomolgus monkey amino acid sequences are identical. Therefore, the protein will be referred to as cynomolgus monkey IL-18.
(§2) Heterodimeric bsAb, anti-IL-18 and anti-IL-23 common light chain bispecific control molecules were assessed for binding to recombinant human and cynomolgus monkey IL-18 and IL-23 using the Biacore 8K and T200 (Cytiva) SPR instruments. The antibodies were captured onto Protein A/G, which was immobilised onto flow cell 2 of 8 channels (Biacore 8K) or flow cells 2, 3 and 4 (Biacore T200) of a CM5 series S sensor chip by primary amine coupling. The IL-18 or IL-23 analytes were passed over the captured antibodies at varying concentrations between 0.04-25 nM. The association phase was for 240 seconds at 30 μl/min, followed by a dissociation step of up to 1200 seconds. A 0 nM (i.e., buffer alone) injection was used to double reference the binding curves. Regeneration of the chip surface between cycles was carried out using 50 mM NaOH. The assay was run at 25° C. in HBS-EP⁺ buffer. Biacore 8K control software version 3.0 was used to run the experiment. Data was analysed using Biacore 8K Insight evaluation software version 3.0. Biacore T200 control software version 1.0 was used to run the experiment. Data was analysed using Biacore T200 evaluation software version 2.0. Affinities and kinetics were determined using the 1:1 kinetic fit inherent to the software where possible. All affinity values generated using both instruments were combined to determine geometric mean values.

Human IL-23 [2] = target: T2, Human IL-23 (human, UniProt Q9NPF7 20-189; P29460 23-328); assay: cell-based or functional assay
T2 sequence 1: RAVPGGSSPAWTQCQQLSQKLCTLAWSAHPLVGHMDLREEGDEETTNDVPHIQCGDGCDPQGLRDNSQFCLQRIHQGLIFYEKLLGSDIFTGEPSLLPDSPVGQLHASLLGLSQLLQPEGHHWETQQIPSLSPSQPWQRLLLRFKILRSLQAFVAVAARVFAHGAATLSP
T2 sequence 2: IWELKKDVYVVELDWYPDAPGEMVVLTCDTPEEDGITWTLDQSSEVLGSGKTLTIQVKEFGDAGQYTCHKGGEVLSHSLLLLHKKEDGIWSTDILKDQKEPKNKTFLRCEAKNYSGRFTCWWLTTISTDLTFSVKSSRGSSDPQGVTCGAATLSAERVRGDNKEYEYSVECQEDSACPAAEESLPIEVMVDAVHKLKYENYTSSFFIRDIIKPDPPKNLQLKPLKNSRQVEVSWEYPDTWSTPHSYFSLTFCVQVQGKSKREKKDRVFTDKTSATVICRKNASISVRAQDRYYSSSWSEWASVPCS

Human IL-23 [3] = target: T2, Human IL-23; assay: cell-based or functional assay; remark: listed apart in the source
Human IL-18 [4] = target: T1, Human IL-18; assay: cell-based or functional assay
Human IL-23 [5] = target: T2, Human IL-23; assay: SPR (Biacore), antibody captured on Protein A/G, cytokine as analyte, 25 C, 1:1 fit, n=1
Protocol: as §1, §2

Human recombinant IL-12 = target: T3, Human recombinant IL-12 (human, UniProt P29459 23-219); assay: cell-based or functional assay
T3 sequence 1: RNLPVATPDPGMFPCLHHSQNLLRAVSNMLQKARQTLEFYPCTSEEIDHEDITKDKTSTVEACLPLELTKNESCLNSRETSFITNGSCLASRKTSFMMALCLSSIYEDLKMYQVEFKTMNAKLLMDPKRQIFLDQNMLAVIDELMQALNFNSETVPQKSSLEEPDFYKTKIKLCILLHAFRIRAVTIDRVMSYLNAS
T3 sequence 2: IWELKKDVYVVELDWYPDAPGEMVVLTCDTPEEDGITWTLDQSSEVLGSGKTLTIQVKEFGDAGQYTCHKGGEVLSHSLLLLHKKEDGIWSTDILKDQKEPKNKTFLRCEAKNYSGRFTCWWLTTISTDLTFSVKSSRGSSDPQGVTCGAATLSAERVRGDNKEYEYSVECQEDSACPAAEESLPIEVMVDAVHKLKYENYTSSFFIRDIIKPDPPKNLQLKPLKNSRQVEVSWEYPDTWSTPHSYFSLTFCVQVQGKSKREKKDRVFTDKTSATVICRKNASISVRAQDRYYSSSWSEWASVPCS

Human IL-18 [6] = target: T1, Human IL-18; assay: cell-based or functional assay; remark: listed apart in the source
Human IL-18 [7] = target: T1, Human IL-18; assay: SPR (Biacore), antibody captured on Protein A/G, cytokine as analyte, 25 C, 1:1 fit, n=1
Protocol: as §1, §2

binding result (Human IL-18 [1]): no binding (tested: 0.04-25 nM analyte)
IC50 Parent (pM), inhibition of human IL-23-induced mouse IL-17A secretion in mouse splenocytes (run with Heterodimeric bsAb-1) (Human IL-23 [2]): 60 pM
IC50 Parent (pM), inhibition of human IL-23-induced mouse IL-17A secretion in mouse splenocytes (run with Heterodimeric bsAb-2) (Human IL-23 [2]): 53.3 pM
IC50 Parent (pM), inhibition of IL-23-induced pSTAT3 in T cells of human whole blood (run with Heterodimeric bsAb-1) (Human IL-23 [3]): 282 pM
IC50 Parent (pM), inhibition of IL-23-induced pSTAT3 in T cells of human whole blood (run with Heterodimeric bsAb-2) (Human IL-23 [3]): 286 pM
pIC50 (GeoMean), neutralisation of human IL-18-induced IFNγ secretion by KG-1 cells (Human IL-18 [4]): < 8.48
Kd (Human IL-23 [5]): 0.163 nM
B1: IL-23 control 2 (antibody, V domains shown)
VH: QVQLVQSGAEVKKPGSSVKVSCKASGYTFTDQTIHWMRQAPGQGLEWIGYIYPRDDSPKYNENFKGKVTITADKSTSTAYMELSSLRSEDTAVYYCAIPDRSGYAWFIYWGQGTLVTVSS
VL: DIQMTQSPSSLSASVGDRVTITCKASRDVAIAVAWYQQKPGKVPKLLIYWASTRHTGVPSRFSGSGSRTDFTLTISSLQPEDVADYFCHQYSSYPFTFGSGTKLEIK
notes: Anti-IL-23 (risankizumab) mAb plus Het-mAb Fc mutations of Heterodimeric bsAbs 1-4 and silencing (LAGA) mutations; also called risankizumab variable domains

IC50 (pM), inhibition of IL-12-induced IFNγ secretion by NK-92 cells (Human recombinant IL-12): 875 pM
IC50 (ug/mL), inhibition of IL-12-induced IFNγ secretion by NK-92 cells (Human recombinant IL-12): 0.13 µg/mL
B2: Ustekinumab (antibody, V domains shown)
VH: EVQLVQSGAEVKKPGESLKISCKGSGYSFTTYWLGWVRQMPGKGLDWIGIMSPVDSDIRYSPSFQGQVTMSVDKSITTAYLQWNSLKASDTAMYYCARRRPGQGYFDFWGQGTLVTVSS
VL: DIQMTQSPSSLSASVGDRVTITCRASQGISSWLAWYQQKPEKAPKSLIYAASSLQSGVPSRFSGSGSGTDFTLTISSLQPEDFATYYCQQYNIYPYTFGQGTKLEIK

binding result (Human IL-18 [1]): no binding (tested: 0.04-25 nM analyte)
IC50 Parent (pM), inhibition of human IL-23-induced mouse IL-17A secretion in mouse splenocytes (run with Heterodimeric bsAb-3) (Human IL-23 [2]): 687 pM
IC50 Parent (pM), inhibition of IL-23-induced pSTAT3 in T cells of human whole blood (run with Heterodimeric bsAb-3) (Human IL-23 [3]): 637 pM
Kd (Human IL-23 [5]): 0.576 nM
B3: IL-23 control 3 (antibody, V domains shown)
VH: QVQLVQSGAEVKKPGASVKVSCKASGYIFITYWMTWVRQAPGQGLEWMGQIFPASGSADYNEKFEGRVTMTTDTSTSTAYMELRSLRSDDTAVYYCARGGGGFAYWGQGTLVTVSS
VL: DIQMTQSPSSLSASVGDRVTITCRTSENIYSYLAWYQQKPGKAPKLLIYNAKTLAEGVPSRFSGSGSGTDFTLTISSLQPEDFATYYCQHHYGIPFTFGQGTKVEIK
notes: Anti-IL-23 (tildrakizumab) plus Het-mAb Fc mutations of Heterodimeric bsAbs 1-4 and half-life extending (YTE) mutations; also called tildrakizumab variable domains

IC50 Heterodimeric bsAb (% of Parent IL-23 control 3), IL-23-induced mouse IL-17A in mouse splenocytes (Human IL-23 [2]): 387 % of Parent
IC50 Heterodimeric bsAb (pM), inhibition of human IL-23-induced mouse IL-17A secretion in mouse splenocytes (Human IL-23 [2]): 2670 pM
IC50 Heterodimeric bsAbs (% of Parent IL-23 control 3), IL-23-induced pSTAT3 in T cells of human whole blood (Human IL-23 [3]): 100 % of Parent
IC50 Heterodimeric bsAbs (pM), inhibition of IL-23-induced pSTAT3 in CD3+CD161+ T cells of human whole blood (Human IL-23 [3]): 640 pM
IC50 (pM, Mean), neutralisation of human IL-18-induced IFNγ secretion by KG-1 cells (Human IL-18 [4]): 105 pM
pIC50 (GeoMean), neutralisation of human IL-18-induced IFNγ secretion by KG-1 cells (Human IL-18 [4]): 9.98
IC50 Heterodimeric bsAbs (% of Parent IL-18 control 3), LPS + IL12-induced IFN-γ in human whole blood (Human IL-18 [6]): 280 % of Parent
IC50 Heterodimeric bsAbs (nM), inhibition of LPS + IL12-induced IFN-γ in human whole blood (Human IL-18 [6]): 21.7 nM
Kd (Human IL-23 [5]): 0.499 nM
Kd (Human IL-18 [7]): < 0.01 nM
B4: Heterodimeric bsAb 3 (bispecific antibody, human IgG1, kappa)
heavy 1: QVQLVQSGAEVKKPGASVKVSCKVSGEISTGYYFHWVRQAPGKGLEWMGRIDPEDDSTKYAERFKDRVTMTEDTSTDTAYMELSSLRSEDTAVYYCTTWRIYRDSSGRPFYVMDAWGQGTLVTVSSASTKGPSVFPLAPSSKSTSGGTAALGCEVTDYFPEPVTVSWNSGALTSGVHTFPAVLESSGLYSLSSVVTVPSSSLGTQTYICNVNHKPSNTKVDKKVEPKSCDKTHTCPPCPAPELAGAPSVFLFPPKPKDTLMISRTPEVTCVVVDVSHEDPEVKFNWYVDGVEVHNAKTKPREEQYNSTYRVVSVLTVLHQDWLNGKEYKCKVSNKALPAPIEKTISKAKGQPREPQVYVYPPSRDELTKNQVSLTCLVKGFYPSDIAVEWESNGQPENNYKTTPPVLDSDGSFALVSKLTVDKSRWQQGNVFSCSVMHEALHNHYTQKSLSLSPGK
light 1: DIQMTQSPSSVSASVGDRVTITCLASEDIYTYLTWYQQKPGKAPKLLIYGANKLQDGVPSRFSGSGSGTDYTLTISSLQPEDFATYYCLQGSKFPLTFGQGTKLEIKRTVAAPSVFIFPPSDERLKSGTASVVCLLNNFYPREAKVQWKVDNALQSGNSQESVTEQDSKDSTYSLSSRLTLSKADYEKHKVYACEVTHQGLSSPVTKSFNRGEC
heavy 2: QVQLVQSGAEVKKPGASVKVSCKASGYIFITYWMTWVRQAPGQGLEWMGQIFPASGSADYNEKFEGRVTMTTDTSTSTAYMELRSLRSDDTAVYYCARGGGGFAYWGQGTLVTVSSASTKGPSVFPLAPSSKSTSGGTAALGCRVKDYFPEPVTVSWNSGALTSGVHTFPAVLQSSGLYSLSSVVTVPSSSLGTQTYICNVNHKPSNTKVDKKVEPKSCDKTHTCPPCPAPELAGAPSVFLFPPKPKDTLMISRTPEVTCVVVDVSHEDPEVKFNWYVDGVEVHNAKTKPREEQYNSTYRVVSVLTVLHQDWLNGKEYKCKVSNKALPAPIEKTISKAKGQPREPQVYVLPPSRDELTKNQVSLLCLVKGFYPSDIAVEWESNGQPENNYLTWPPVLDSDGSFFLYSKLTVDKSRWQQGNVFSCSVMHEALHNHYTQKSLSLSPGK
light 2: DIQMTQSPSSLSASVGDRVTITCRTSENIYSYLAWYQQKPGKAPKLLIYNAKTLAEGVPSRFSGSGSGTDFTLTISSLQPEDFATYYCQHHYGIPFTFGQGTKVEIKRTVAAPSVFIFPPSDEELKSGTASVECLLNNFYPREAKVQWKVDNALQSGNSQESVTEQDSKDSTYSLSSTLTLSKADYEKHKVYACEVTHQGLSSPVTKSFNRGEC
notes: Het-mAb format: anti-IL-18 mAb on ZA and anti-IL-23 mAb (tildrakizumab) on ZB, with Fc heterodimerisation and silencing mutations
